The values below come from PMC3905845, “Intracellular dynamics of archaeal FANCM homologue Hef in response to halted DNA replication” (Nucleic Acids Research, 2013).

This series deals with the molecule itself. Kind of series: AUC; sedimentation velocity (0.9, 1 and 1.6 mg/ml) and sedimentation equilibrium (0.6 or 1 mg/ml) at 20°C in buffer C (2M KCl, 10 mM Hepes, pH 7.0), absorbance at 280 nm; SEDFIT and SEDPHAT.

B1: Haloferax volcanii Hef protein (helicase-associated endonuclease fork-structure DNA), full length with a six-histidine tag (natural protein, UniProt D4GYC2 1-858, looked up)
chain: MSASEDVAYVDHPLLAPSFIERRLYQIRLAGTARDGHTLVCLPTGLGKTTVSLLVTAQRLHDVGGKSLFLAPTKPLVQQHADFYREALTVPDDEIVVFTGDVRPDDRAELWQEAQIVIATPQVIENDLIGNRISLRDVTHLTFDECHRASGDYAYVYIAERYHAAAENPLVTGMSASPGGDEEAILEVCENLGIVDVEVMTEEDADVSEYTHDTDVEWNRIQLPDEILEIRDALNEVITDRLEKLKQLGVTKSTKPDISQKKLNRMRAELQRLMNADKSEGYKGMSTHAEVMKLRRAVELVETQSVESVRRYFERQRNAARSSGASKASQRLVAEPKVREAMRKAESFDGLHPKFRKTRILLAETLGIQNGERVIVFTESRDTAEALTEFLSESFSVRRFVGQGDREGSDGMTQNEQQETLDKFRNGEFEVLVSTSVAEEGLDVPEVDLVLFFEPVPTAIRSIQRKGRTGRQADGRVVVLLAEDTRDEAYFWISRRREKTMQNELRDLKGAADDLEAELDPSQRDLSAFAGDDASSAGSAGSSTRNEGVDVASEGDANGASATASSASNGRTATAAATDSDGQSGLADFGPSDEALARADDGDDSHGEDADPADSGDDPASDAEGDEVDDSATVAAAGTDDEDTVEIVVDQRELDSNIARTLSKREDLTTRLETLAVGDYVLSDRVAVERKSVSDFLDTLTGGDRSIFEQIADLTRHYARPLLVIEGRGLYEERNIHPGAIRGALSSVAVDFNVSVLFTEDEDDTAELLATIATREQTDRERTVSVHGGKSAKTLDEQQEYVVSAIADIGPVTARTLLEAFGSVEAVMTANEEDLKEVRGVGQVTAERIREVVGSEYR
notes: Hef helicase/endonuclease of the XPF/MUS81/FANCM family, Haloferax volcanii; full-length protein; predicted monomeric molecular mass 93.95 kDa; hef amplified from plasmid pTA1097 and cloned into pTA963 (PciI-EcoRI); also called HvoHef; Hef holoprotein; source: H. volcanii (native host, strain lacking hef, tryptophan-induced), purified (Ni-NTA agarose, S-200 gel filtration)
In the case of B1, the “stoichiometry N” value amounted to 2.
